In the supplement of paper PMC10126150:
± gives the standard deviation of the averaged measurements.

Test system: ATP
Experiment: switch fluorescence ratio, 500 uM ATP over buffer (Cy3 cluster intensity, sum of 5 cycles each) (fold (ratio)); higher = stronger signal-on switching upon ATP binding; sequences stand for … in TCGTCGGCAGCGTCAGATGTGTATAAGAGACAGTTTTTTTTTTTTTTTTTTTTTTTTT…TC
Conditions: aptamer strand: ATP DNA aptamer (quencher-CACCTGGGGGAGTATTGCGGAGGAAGG + anchor), 100 nM annealed; ATP concentration: 500 uM
Method in brief: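 Per cluster, summed Cy3 intensity from the target cycles was divided by that from the buffer cycles to give the fluorescence ratio, then averaged per switch-domain sequence. Clusters outside 100-1000 RFU were excluded. The Cy3-labelled switching-strand clusters, on a modified Illumina MiSeq flow-cell, were annealed to 100 nM quencher-labelled ATP aptamer and imaged in selection buffer, then after 15 min with 500 uM ATP at 22 °C, for five cycles with NaOH stripping and re-annealing between them.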
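Also: ATP exposure 15 min at 22 °C before imaging.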

Row | Sequence | switch fluorescence ratio
1 | CCGGGAAATT | 1.22 ± 0.36
2 | CCGGGAAGGC | 2.043 ± 0.0097
3 | CCGGGAGTTG | 1.01 ± 0.024
4 | CCGGGATGGG | 1.03 ± 0.022
5 | CCGGGCGGTG | 1.04 ± 0.021
6 | CCGGGCTGGA | 1.08 ± 0.074
7 | CCGGGGCACT | 1.34 ± 0.26
8 | CCGGGGCCTA | 1.05 ± 0.026
9 | CCGGGGGGTG | 1.07 ± 0.066
10 | CCGGGGTAAG | 1.03 ± 0.029
11 | CCGGGTAGTA | 1.12 ± 0.11
12 | CCGGGTGGG | 1.01 ± 0.062
13 | CCGGGTGTTT | 1.63 ± 0.75
14 | CCGGGTTGGG | 1.02 ± 0.036
15 | CCGGGTTTAC | 1.621 ± 0.013
16 | CCGGTGCGGC | 1.48 ± 0.23
17 | CCGGTGCTCG | 1.04 ± 0.047
18 | CCGGTTACAG | 1.07 ± 0.0078
19 | CCGGTTGAGA | 1 ± 0.016
20 | CCGGTTTTTG | 1.01 ± 0.05
21 | CCGTAACGGA | 0.972 ± 0.012
22 | CCGTAAGGAA | 1.06 ± 0.11
23 | CCGTAGCGTT | 6.12 ± 1.5
24 | CCGTAGGGCT | 1.05 ± 0.042
25 | CCGTATCCCT | 1.03 ± 0.043
26 | CCGTATTGGT | 1.03 ± 0.039

Row | Sequence | switch fluorescence ratio
27 | CCGTCAGGCG | 1.039 ± 0.0067
28 | CCGTCCGGTT | 1.16 ± 0.018
29 | CCGTCTACTG | 1.04 ± 0.013
30 | CCGTGCACGG | 0.978 ± 0.021
31 | CCGTGCAGTA | 3.14 ± 1.2
32 | CCGTGGGGTA | 0.974 ± 0.031
33 | CCGTGTATGT | 1.045 ± 0.0062
34 | CCGTGTGACT | 1.08 ± 0.042
35 | CCGTGTTCTA | 1.03 ± 0.063
36 | CCGTGTTGCT | 1.12 ± 0.061
37 | CCGTTACATG | 1.05 ± 0.017
38 | CCGTTCTTAC | 2.84 ± 1.1
39 | CCGTTGAAGG | 1.01 ± 0.016
40 | CCGTTGAGGG | 1.01 ± 0.086
41 | CCGTTGCGTG | 1 ± 0.036
42 | CCGTTGCTTT | 1.35 ± 0.14
43 | CCGTTGGTGG | 0.983 ± 0.024
44 | CCGTTGTGAA | 1.043 ± 0.0012
45 | CCGTTTAAAA | 1.11 ± 0.15
46 | CCGTTTAGGG | 0.999 ± 0.016
47 | CCGTTTTTGG | 0.993 ± 0.016
48 | CCTAACCTCT | 1.01 ± 0.032
49 | CCTAATGAA | 1.2 ± 0.28
50 | CCTAATGTAA | 1.08 ± 0.027
51 | CCTACATGTG | 1.26 ± 0.11
52 | CCTACCGTGG | 1.31 ± 0.11

Row | Sequence | switch fluorescence ratio
53 | CCTACGGGCC | 2.16 ± 0.12
54 | CCTAGATAAC | 1.16 ± 0.039
55 | CCTAGGGCGG | 1.006 ± 0.0011
56 | CCTAGGGGAG | 1.04 ± 0.04
57 | CCTAGGGGGA | 1.05 ± 0.021
58 | CCTAGGGTGG | 1.03 ± 0.069
59 | CCTAGGGTTA | 1.01 ± 0.074
60 | CCTAGGTTTC | 0.981 ± 0.035
61 | CCTATAGTAC | 1.69 ± 0.05
62 | CCTATCGAAT | 1.97 ± 1.1
63 | CCTATCGTTG | 1.08 ± 0.0056
64 | CCTATTAAAC | 1.04 ± 0.036
65 | CCTCACAGTT | 1.24 ± 0.096
66 | CCTCAGACAG | 1.58 ± 0.052
67 | CCTCAGCAGA | 3.75 ± 0.53
68 | CCTCATGCCA | 2.3 ± 0.11
69 | CCTCGAGACT | 1.43 ± 0.032
70 | CCTCGGCGGT | 2.47 ± 1.7
71 | CCTCGGTTGG | 1.011 ± 0.0035
72 | CCTCGTTAGC | 2.63 ± 0.13
73 | CCTCTATGAT | 1.42 ± 0.044
74 | CCTCTGGGAT | 2.24 ± 1.7
75 | CCTGAAGGCA | 1 ± 0.011
76 | CCTGAGGGTT | 0.985 ± 0.0069
77 | CCTGATAATT | 1.02 ± 0.02
78 | CCTGATAGCG | 1.05 ± 0.03

Row | Sequence | switch fluorescence ratio
79 | CCTGGATTGC | 1.24 ± 0.093
80 | CCTGGCTTTT | 1.047 ± 0.007
81 | CCTGGGCAAG | 3.81 ± 0.36
82 | CCTGGGCCTT | 1.01 ± 0.025
83 | CCTGGGGAAT | 1.91 ± 1.1
84 | CCTGGGGCTG | 1.12 ± 0.14
85 | CCTGGGGGGT | 1.06 ± 0.13
86 | CCTGGGTAGC | 1.1 ± 0.045
87 | CCTGTAATGT | 1.12 ± 0.042
88 | CCTGTAGGCC | 0.998 ± 0.027
89 | CCTGTGGACG | 0.914 ± 0.048
90 | CCTGTGTAGC | 1.092 ± 0.0031
91 | CCTGTTCGCT | 1.21 ± 0.014
92 | CCTGTTCGGC | 1.02 ± 0.038
93 | CCTGTTGGGG | 0.991 ± 0.039
94 | CCTGTTTTTT | 1.02 ± 0.022
95 | CCTTAATTTT | 1.01 ± 0.019
96 | CCTTAGTGTT | 1.03 ± 0.015
97 | CCTTCTGCCG | 1.203 ± 0.0042
98 | CCTTCTGGGG | 1.12 ± 0.051
99 | CCTTGAAAGG | 1 ± 0.011
100 | CCTTGAATCG | 0.978 ± 0.023
101 | CCTTGAGGGA | 1.06 ± 0.11
102 | CCTTGGACGG | 1.03 ± 0.02
103 | CCTTGGATTG | 0.9851 ± 0.0018
104 | CCTTGGGACG | 0.992 ± 0.062

Row | Sequence | switch fluorescence ratio
105 | CCTTGGTCTT | 0.9979 ± 0.009
106 | CCTTGTGCAG | 1.25 ± 0.018
107 | CCTTGTTATC | 1.1 ± 0.1
108 | CCTTTCGGCT | 1.068 ± 0.0038
109 | CCTTTGGAGG | 0.981 ± 0.016
110 | CCTTTGGTTA | 1.03 ± 0.028
111 | CCTTTGGTTT | 0.982 ± 0.013
112 | CCTTTTACTT | 1.03 ± 0.032
113 | CCTTTTGGGG | 1.03 ± 0.061
114 | CCTTTTTGTC | 1.12 ± 0.06
115 | CCTTTTTTAT | 1.03 ± 0.085
116 | CCTTTTTTTT | 1.01 ± 0.011
117 | CGAAAAGGAG | 1.01 ± 0.015
118 | CGAAAATCTT | 0.9949 ± 0.0095
119 | CGAAACTTTG | 0.974 ± 0.046
120 | CGAAAGCGGC | 1.23 ± 0.014
121 | CGAAATCGGG | 1.02 ± 0.018
122 | CGAACCGGCG | 1.03 ± 0.017
123 | CGAACGCCTG | 1.1 ± 0.036
124 | CGAACTGAGG | 0.985 ± 0.014
125 | CGAACTGCGT | 1.02 ± 0.034
126 | CGAAGAGGTG | 1.07 ± 0.021
127 | CGAAGCTTTT | 1.089 ± 0.003
128 | CGAAGGAATC | 1.78 ± 1.1
129 | CGAAGGATTT | 1.003 ± 0.0041
130 | CGAAGGCGTG | 1 ± 0.018

Row | Sequence | switch fluorescence ratio
131 | CGAAGGGGAA | 1.03 ± 0.099
132 | CGAAGGGGTA | 0.987 ± 0.018
133 | CGAAGGTTAG | 0.987 ± 0.024
134 | CGAAGGTTGC | 1.01 ± 0.04
135 | CGAAGGTTTG | 0.945 ± 0.058
136 | CGAAGTCGGG | 0.955 ± 0.015
137 | CGAAGTCGTC | 1.02 ± 0.021
138 | CGAAGTCTTT | 0.989 ± 0.044
139 | CGAAGTTATA | 1.19 ± 0.038
140 | CGAATATAAA | 0.994 ± 0.054
141 | CGAATATACG | 1.04 ± 0.021
142 | CGAATATCAT | 0.9747 ± 0.0047
143 | CGAATATGAT | 1.02 ± 0.058
144 | CGAATATTGA | 0.959 ± 0.038
145 | CGAATTGATA | 1.01 ± 0.013
146 | CGAATTTGCT | 1.01 ± 0.0079
147 | CGACAAAAAT | 1.89 ± 1
148 | CGACACCGTG | 1.025 ± 0.0013
149 | CGACACTTAG | 1.049 ± 0.0091
150 | CGACATCGCA | 1.321 ± 0.0068
151 | CGACATGAAT | 1.037 ± 0.0082
152 | CGACATTGAG | 0.967 ± 0.012
153 | CGACATTGCA | 1.09 ± 0.022
